Test results: patent US20070244040

T1: 6×His-Livin α
T1 chain: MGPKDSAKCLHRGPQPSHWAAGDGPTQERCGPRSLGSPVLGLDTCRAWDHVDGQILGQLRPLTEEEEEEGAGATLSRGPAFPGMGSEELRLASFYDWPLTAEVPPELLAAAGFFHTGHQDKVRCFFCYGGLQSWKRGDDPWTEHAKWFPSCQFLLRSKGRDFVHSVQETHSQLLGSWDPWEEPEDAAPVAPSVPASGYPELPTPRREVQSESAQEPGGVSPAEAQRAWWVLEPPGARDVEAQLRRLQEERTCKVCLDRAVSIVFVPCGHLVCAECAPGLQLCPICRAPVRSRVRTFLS

T2: 6×His-Livin β
T2 chain: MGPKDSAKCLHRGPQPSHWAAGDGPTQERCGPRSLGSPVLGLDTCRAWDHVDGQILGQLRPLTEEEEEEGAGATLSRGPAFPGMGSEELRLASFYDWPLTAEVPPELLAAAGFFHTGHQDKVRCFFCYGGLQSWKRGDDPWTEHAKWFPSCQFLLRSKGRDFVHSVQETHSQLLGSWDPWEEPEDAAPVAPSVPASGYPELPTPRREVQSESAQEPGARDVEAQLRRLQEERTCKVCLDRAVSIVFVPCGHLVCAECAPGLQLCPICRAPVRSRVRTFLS

T3: Livin β
T3 chain: T2 chain

T4: Livin α
T4 chain: T1 chain

B1: caspase 9 (protein)
chain: MDEADRRLLRRCRLRLVEELQVDQLWDALLSRELFRPHMIEDIQRAGSGSRRDQARQLIIDLETRGSQALPLFISCLEDTGQDMLASFLRTNRQAAKLSKPTLENLTPVVLRPEIRKPEVLRPETPRPVDIGSGGFGDVGALESLRGNADLAYILSMEPCGHCLIINNVNFCRESGLRTRTGSNIDCEKLRRRFSSLHFMVEVKGDLTAKKMVLALLELAQQDHGALDCCVVVILSHGCQASHLQFPGAVYGTDGCPVSVEKIVNIFNGTSCPSLGGKPKLFFIQACGGEQKDHGFEVASTSPEDESPGSNPEPDATPFQEGLRTFDQLDAISSLPTPSDIFVSYSTFPGFVSWRDPKSGSWYVETLDDIFEQWAHSEDLQSLLLRVANAVSVKGIYKQMPGCFNFLRKKLFFKTS
B2: caspase 8 (protein)
chain: SESQTLDKVYQMKSKPRGYCLIINNHNFAKAREKVPKLHSIRDRNGTHLDAGALTTTFEELHFEIKPHDDCTVEQIYEILKIYQLMDHSNMDCFICCILSHGDKGIIYGTDGQEAPIYELTSQFTGLKCPSLAGKPKVFFIQACQGDNYQKGIPVETDSEEQPYLEMDLSSPQTRYIPDEADFLLGMATVNNCVSYRNPAEGTWYIQSLCQSLRERCPRGDDILTILTEVNYEVSNKDDKKNMGKQMPQPTFTLRKKLVFPSD
B3: caspase 6 (protein)
chain: AFYKREMFDPAEKYKMDHRRRGIALIFNHERFFWHLTLPERRGTCADRDNLTRRFSDLGFEVKCFNDLKAEELLLKIHEVSTVSHADADCFVCVFLSHGEGNHIYAYDAKIEIQTLTGLFKGDKCHSLVGKPKIFIIQACRGNQHDVPVIPLDVVDNQTEKLDTNITEVDAASVYTLPAGADFLMCYSVAEGYYSHRETVNGSWYIQDLCEMLGKYGSSLEFTELLTLVNRKVSQRRVDFCKDPSAIGKKQVPCFASMLTKKLHFFPKSN
B4: caspase 3 (protein)
chain: SGISLDNSYKMDYPEMGLCIIINNKNFHKSTGMTSRSGTDVDAANLRETFRNLKYEVRNKNDLTREEIVELMRDVSKEDHSKRSSFVCVLLSHGEEGIIFGTNGPVDLKKITNFFRGDRCRSLTGKPKLFIIQACRGTELDCGIETDSGVDDDMACHKIPVEADFLYAYSTAPGYYSWRNSKDGSWFIQSLCAMLKQYADKLEFMHILTRVNRKVATEFESFSFDATFHAKKQIPCIVSMLTKELYFYH
B5: caspase 7 (protein)
chain: AKPDRSSFVPSLFSKKKKNVTMRSIKTTRDRVPTYQYNMNFEKLGKCIIINNKNFDKVTGMGVRNGTDKDAEALFKCFRSLGFDVIVYNDCSCAKMQDLLKKASEEDHTNAACFACILLSHGEENVIYGKDGVTPIKDLTAHFRGDRCKTLLEKPKLFFIQACRGTELDDGIQADSGPINDTDANPRYKIPVEADFLFAYSTVPGYYSWRSPGRGSWFVQALCSILEEHGKDLEIMQILTRVNDRVARHFESQSDDPHFHEKKQIPCVVSMLTKELYFSQ

Experiments:
6×His-Livin α = target: T1, 6×His-Livin α
6×His-Livin β = target: T2, 6×His-Livin β
Livin β = target: T3, Livin β
Livin α = target: T4, Livin α

| Protein | in vitro cleavage, Western blot with anti-Livin antibody (6×His-Livin α) | in vitro cleavage, Western blot with anti-Livin antibody (6×His-Livin β) | in vitro cleavage of in vitro translated protein, Western blot (Livin β) | in vitro cleavage of in vitro translated protein, Western blot (Livin α) |
| --- | --- | --- | --- | --- |
| B1 | incubation with high concentrations of caspase 9 resulted in a weak cleavage, suggesting that caspase 9 might cleave Livin with a very low affinity | incubation with high concentrations of caspase 9 resulted in a weak cleavage, suggesting that caspase 9 might cleave Livin with a very low affinity |  |  |
| B2 | Treatment of recombinant Livin α and β with caspase 8 had no effect even when 90 units of this enzyme were used | Treatment of recombinant Livin α and β with caspase 8 had no effect even when 90 units of this enzyme were used |  |  |
| B3 | caspase 6 was not able to cleave Livin at low concentrations (FIG. 4b) | relatively high concentrations of caspase 6 ... cleaved Livin β | it did not cleave any of the Livin isoforms that were translated in eukaryotic in vitro system | it did not cleave any of the Livin isoforms that were translated in eukaryotic in vitro system |
| B4 |  | effector caspases 3, 7, and relatively high concentrations of caspase 6, but not the initiator caspases 8 and 9, cleaved Livin β | underwent cleavage similar to the wild-type protein by caspase 3 and 7 | underwent cleavage similar to the wild-type protein by caspase 3 and 7 |
| B5 | In contrast to the marked efficiency of caspase 7, caspase 6 was not able to cleave Livin at low concentrations (FIG. 4b) | The most efficient cleavage was observed when caspase 7 was used, resulting in the complete cleavage of the recombinant Livin β | underwent cleavage similar to the wild-type protein by caspase 3 and 7 | underwent cleavage similar to the wild-type protein by caspase 3 and 7 |
